Laboratory results reported in patent US9090686B2, “Antibodies for the treatment of HIV” (Pierre Fabre Medicament, priority 2009, dated 2015).
Residue numbers refer to the chain shown, from its start.

B1: 515H7: murine anti-CXCR4 monoclonal antibody; light chain variable domain SEQ ID No. 7, heavy chain variable domain SEQ ID No. 8 (antibody, listed as Mus musculus, V domains shown)
VH: EVNLVESGGGLVQPGGSLRLSCATSGFTFTDNYMSWVRQPPGKALEWLGFIRNKANGYTTDYSASVRGRFTISRDNSQSILYLQMNALRAEDSATYYCARDVGSNYFDYWGQGTTLTVSS
VL: DIVMSQSPSSLAVSAGEKVTMSCKSSQSLFNSRTRKNYLAWYQQKPGQSPKLLIYWASARDSGVPARFTGSGSETYFTLTISRVQAEDLAVYYCMQSFNLRTFGGGTKLEIK
B2: 301aE5: murine anti-CXCR4 monoclonal antibody; light chain variable domain SEQ ID No. 34, heavy chain variable domain SEQ ID No. 35 (antibody, listed as Mus musculus, V domains shown)
VH: QVQLKESGPGLVAPSQSLSITCTVSGFSLTDYGVYWVRQPPGKGLEWLGMIWGDGTTDYNSALKSRLSISKDNSKSQVFLKMNTLQTDDTARYYCARGRQFGFDYWGQGTTLTVSS
VL: B1 VL with S22R, Y55F, A59I, D61E, A66D, E74G, Y76D, R83S, M95K, F98Y

Key:
Format in all cases: cell-based
[1] = tested on: HIV-1 primary isolate KON (X4 virus); experiment: HIV-1 KON replication in PHA-activated human PBMC, single cycle neutralization, p24 FACS (Example 5); details: HIV-1 KON replication in PBMC, molar value in brackets
Experimental: PBMC from normal donors seronegative for HIV-1 were isolated from buffy coats or cytapheresis by Ficoll-Hypaque gradient centrifugation. PBMC were activated in the presence of PHA in RPMI 1640 cell culture medium containing 25 mM HEPES, 5 ml penicillin (10000 U/ml)-streptomycin (10000 μg/ml) 2 mM L-glutamine, supplemented with 10% heat-inactivated FCS and were used as cellular targets in a single cycle neutralization assay. HIV-1 replication in primary human PBMC was performed by analyzing intracellular staining of viral p24 antigen by FACS analysis. Briefly, 25 μl per well of various dilutions of Mabs 515H7, 301aE5 and 12G5 (R&D Systems) or culture medium as control (RPMI 1640, 10% FCS, 0.1% IL-2), were incubated for 1 h at 37° C. with 25 μl per well of HIV-1 KON X4 primary isolate dilution, in duplicate. PHA-activated human PBMC (25 μl/well) at 20×10^6 cells/ml were added to the Mab/virus mixture in a 96-well plate (U-bottom, Costar 3599) and cultured for 24 to 36 hours at 37° C. in RPMI 1640 10% FCS and 0.1% IL-2. […] To detect HIV-infected PBMC, intracellular staining of viral p24 antigen was performed and analyzed by flow cytometry. […] The percentage of p24-positive cells in the different samples was determined by gating 20,000 events on a living cell population. The living cell subsets were analyzed for p24 expression relative to background staining of uninfected cells. […]

X4 HIV-1 LAI virus = experiment: GHOST cells expressing CD4 and CXCR4 infected with X4 HIV-1 LAI virus
Experimental: (§1) In order to determine the specificity of CXCR4 515H7 Mab, we evaluated the anti-HIV-1 activity of this Mab using GHOST cells expressing CD4 and CXCR4 or CCR5.
(§2) This assay is performed in 48 h using either the X4 HIV-1 LAI virus (with Ghost cells expressing CXCR4) or the R5 HIV-1 BaL virus (with Ghost cells expressing CCR5). 500 μl of Ghost cells were plated (2.5 10^5 cells/ml) for 24 h in Dulbecco culture medium supplemented with 10% FCS. Various dilutions of Mab 515H7 were incubated for 1 h at 37° C. and then diluted HIV-1 LAI virus ( 1/10) and HIV-1 BaL virus ( 1/7) were added to the cells for 48h. Cells were submitted to trypsin and washed with PBS 1×. 300 μL of 1.5% paraformaldehyde were added to the cell pellets for 2 h at +4° C. in the dark, in order to fix the cells and to inactivate viruses. GFP-positive cells were analyzed by flow cytometry and inhibition of HIV-1 infection was calculated.
(§3) The percent of inhibition of infected cells was defined as […] with control infected wells with no Mab.

R5 HIV-1 BaL virus = experiment: GHOST cells expressing CD4 and CCR5 infected with R5 HIV-1 BaL virus
Experimental: as §1, §2, §3

| Molecule | IC90 [1] [nM] | inhibition of HIV-1 X4 Lai virus infection in CXCR4 expressing Ghost cells (in words) (X4 HIV-1 LAI virus) | GHOST CXCR4/LAI virus % inhibition of infected cells 80 (X4 HIV-1 LAI virus; IC for 80% inhibition) [µg/mL] | inhibition of HIV-1 R5 BaL virus infection in CCR5 expressing Ghost cells (in words) (R5 HIV-1 BaL virus) |
| --- | --- | --- | --- | --- |
| B1 | 66 | able to inhibit | 0.1 | totally inactive |
| B2 | 1000 | – | – | – |
